According to US20090092602A1 (published 2009):

B1: cH36 chimeric anti-tissue factor antibody (antibody, human IgG4, V domains shown)
VH: EIQLQQSGPELVKPGASVQVSCKTSGYSFTDYNVYWVRQSHGKSLEWIGYIDPYNGITIYDQNFKGKATLTVDKSSTTAFMHLNSLTSDDSAVYFCARDVTTALDFWGQGTTLTVSS
VL: DIQMTQSPASQSASLGESVTITCLASQTIDTWLAWYQQKPGKSPQLLIYAATNLADGVPSRFSGSGSGTKFSFKISSLQAEDFVNYYCQQVYSSPFTFGAGTKLELK
notes: Mouse-human chimera; also called Sunol-cH36; chimeric H36
B2: hOAT (humanized IgG One Anti-Tissue Factor antibody) (antibody)
heavy: not shown
light: DIQMTQSPASLSASVGDRVTITCLASQTIDTWLAWYLQKPGKSPQLLIYAATNLADGVPSRFSGSGSGTDFSFTISSLQPEDFATYYCQQVYSSPFTFGQGTKLEIKRTVAAPSVFIFPPSDEQLKSGTASVVCLLNNFYPREAKVQWKVDNALQSGNSQESVTEQDSKDSTYSLSSTLTLSKADYEKHKVYACEVTHQGLSSPVTKSFNRGEC
B3: hFAT (humanized IgG Four Anti-Tissue Factor antibody) (antibody)
heavy: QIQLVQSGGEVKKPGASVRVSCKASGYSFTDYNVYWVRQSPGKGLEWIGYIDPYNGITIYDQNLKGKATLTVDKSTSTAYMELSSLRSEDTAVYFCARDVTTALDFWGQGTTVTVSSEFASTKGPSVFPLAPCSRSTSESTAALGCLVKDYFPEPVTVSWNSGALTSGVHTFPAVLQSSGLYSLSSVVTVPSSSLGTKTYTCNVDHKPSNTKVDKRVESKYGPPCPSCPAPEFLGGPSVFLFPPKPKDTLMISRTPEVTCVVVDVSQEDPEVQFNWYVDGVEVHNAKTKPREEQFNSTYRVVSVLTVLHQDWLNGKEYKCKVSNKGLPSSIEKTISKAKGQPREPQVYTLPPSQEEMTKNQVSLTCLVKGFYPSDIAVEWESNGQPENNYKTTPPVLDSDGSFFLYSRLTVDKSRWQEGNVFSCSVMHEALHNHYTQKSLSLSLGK
light: B2 light
notes: also called humanized cH36-IgG4; HC08 + LC09 IgG4 kappa
B4: H36.D2.B7 murine anti-tissue factor monoclonal antibody (antibody, mouse IgG2a, V domains shown)
VH: B1 VH
VL: B1 VL

target: T1, lipidated recombinant human tissue factor (Innovin) (human, UniProt P13726 33-295, limits assumed); test: cell-based or functional assay

B1 and B2 are the same in “inhibition of TF function in PT assay at above 12.9 nM antibody” value: roughly 95% for the first, roughly 95% for the second.

With B3 the “inhibition of TF function in PT assay at above 12.9 nM antibody” value was roughly 95%.

target: T1, lipidated recombinant human tissue …; test: cell-based or functional assay; remark: another data set of the same source

Going from B1 to B2, the “PT Time (in seconds) at 12.9 nM antibody (12.2 s at 0 nM)” value falls from 19.8 s to 18.9 s.

In the case of B3, the “PT Time (in seconds) at 12.9 nM antibody (12.2 s at 0 nM)” value is reported as 20.5 s.

Compared with B1, B2 is lower in “PT Time (in seconds) at 25.8 nM antibody (12.2 s at 0 nM)” value: 40 s for the first, 33.7 s for the second.

In the case of B3, the “PT Time (in seconds) at 25.8 nM antibody (12.2 s at 0 nM)” value is reported as 41.7 s.

Compared with B1, B2 is lower in “PT Time (in seconds) at 51.6 nM antibody (12.2 s at 0 nM)” value: 101 s for the first, 82.1 s for the second.

B3 was tested, and the “PT Time (in seconds) at 51.6 nM antibody (12.2 s at 0 nM)” value was 94.8 s.

target: T2, recombinant human tissue factor (human, UniProt P13726 33-251, limits assumed); test: SPR (BIAcore), recombinant human TF immobilized on CM5 chip, antibody 0.125-1 nM; apparent Ka
T2 construct: also called TF; human TF
Protocol: (§1) The affinity of humanized anti-TF antibody for TF was determined by surface plasmon resonance (BIAcore from Pharmacia Biosensor) with recombinant human tissue factor covalently immobilized on a CM5 sensor chip.

Going from B1 to B4, the Ka rises from 7.94e+09 M⁻¹ to 1.56e+10 M⁻¹ (2-fold).

In the case of B3, the Ka is reported as 2.99e+09 M⁻¹.

target: T2, recombinant human tissue factor; test: SPR (BIAcore), recombinant human TF immobilized on CM5 chip, antibody 0.125-1 nM; apparent Kd
Protocol: as §1

Compared with B1, B4 is 2-fold lower in Kd: 0.126 nM for the first, 0.064 nM for the second.

Binder B3 has a Kd of 0.335 nM.
